Laboratory results published in article PMC9943651.

Key:
[1] = target: AnxA2 mutant #3 K115A;K119A;R205A;K206A (Homo sapiens) (UniProt P07355); test: fluorescence anisotropy; details: full PS DNA; no 2' modification; 20 mM HEPES pH 7.0, 100 mM NaCl, 1 mM DTT, with 1 mM CaCl2, MgCl2 or EGTA; 50 nM labelled oligo, 0-120 uM protein; temperature not stated
[2] = target: Annexin A2 CTD (AnxA2) (Homo sapiens) (UniProt P07355); test: fluorescence anisotropy; details: 20 mM HEPES pH 7.0, 100 mM NaCl, 1 mM DTT, with 1 mM CaCl2, MgCl2 or EGTA, 50 nM labelled oligo, 0-120 uM protein, temperature not stated
Sequence of Annexin A2 CTD (AnxA2) (Homo sapiens) (P07355 34-339): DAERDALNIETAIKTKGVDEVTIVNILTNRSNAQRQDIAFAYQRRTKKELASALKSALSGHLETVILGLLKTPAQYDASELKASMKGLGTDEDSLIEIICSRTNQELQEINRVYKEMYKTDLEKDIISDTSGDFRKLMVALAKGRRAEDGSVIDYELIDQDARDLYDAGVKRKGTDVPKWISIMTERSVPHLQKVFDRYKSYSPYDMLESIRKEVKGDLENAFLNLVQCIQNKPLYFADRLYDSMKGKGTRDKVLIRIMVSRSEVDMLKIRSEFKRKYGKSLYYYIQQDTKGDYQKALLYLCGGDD

Sequence of AnxA2 mutant #3 K115A;K119A;R205A;K206A (Homo sapiens) (P07355 34-339 K115A/K119A/R205A/K206A): as the sequence (P07355 34-339) above, with K82A, K86A, R172A, K173A counted along it

Sequence: CTGCTAGCCTCTGGATTTGA [PTEN PS, labelled]
- binding signal (fold weaker than wild type) [1]: 7
- Kd ([2]; full PS DNA, no 2' modification): 5 µM

Sequence: GCCAGGCTGGTTATG [5-10 MALAT PS, labelled]
- Kd ([2]; full PS, 5 nt 2'-MOE 5' wing + 10 nt DNA, 5-methyl-C): 9.3 µM

Sequence: GCCAGGCTGGTTATGACTCA [5-10-5 MALAT PS, labelled]
- Kd ([2]; full PS, 5-10-5 2'-MOE gapmer, 5-methyl-C): 6.3 µM

Sequence: TTTTTTTTTTTTTTTTTTTG [T19G PS, labelled]
- Kd ([2]; full PS DNA): 8.2 µM
